In article doi:10.1101/2025.05.20.655083:

Molecular target: BSB PyV-LTA;mNLSn peptide (Black Sea Bass polyomavirus)
Experiment: fluorescence polarisation

With “mouse importin α2 ΔIBB (from UniProt P52293 70-529) (domain or fragment)” as the substance, how does the fold decrease of binding affinity against BSB PyV-LTA;NLS read?
The fold decrease of binding affinity against BSB PyV-LTA;NLS was 10 times.
